What was measured:
[1] = system: GFP-14-3-3β and its binding proteins; test: GFP-14-3-3β co-IP with LC-MS/MS label-free quantification, untreated versus PP1c-treated; design: species or system human
[2] = system: GFP-14-3-3β; test: GFP-14-3-3β co-IP with LC-MS/MS, untreated GFP-14-3-3β versus GFP control (14-3-3 interactome); format: binding, human
[3] = GFP-14-3-3β co-IP LC-MS/MS, PP1 vs untreated, student's t-test, label-free quantification, 3 replicates each
[4] = GFP-14-3-3β co-IP LC-MS/MS, untreated vs GFP, student's t-test, label-free quantification, 3 replicates each
[5] = log2 difference, pairwise comparison PP1 vs untreated, label-free quantification, 3 replicates each
[6] = log2 difference, pairwise comparison untreated vs GFP, label-free quantification, 3 replicates each

Molecule | Difference (log2), PP1 vs untreated [1, 3] | Difference (log2), untreated vs GFP [2, 4] | further results
SRPRB (protein, UniProt Q9Y5M8 1-271, looked up) Signal recognition particle …: MASADSRRVADGGGAGGTFQPYLDTLRQELQQTDPTLLSVVVAVLAVLLTLVFWKLIRSRRSSQRAVLLVGLCDSGKTLLFVRLLTGLYRDTQTSITDSCAVYRVNNNRGNSLTLIDLPGHESLRLQFLERFKSSARAIVFVVDSAAFQREVKDVAEFLYQVLIDSMGLKNTPSFLIACNKQDIAMAKSAKLIQQQLEKELNTLRVTRSAAPSTLDSSSTAPAQLGKKGKEFEFSQLPLKVEFLECSAKGGRGDVGSADIQDLEKWLAKIA | -0.6831 log2 | 1.397 log2 | 
GNAS (protein, UniProt P63092 2-394, looked up) Guanine nucleotide-binding …: GCLGNSKTEDQRNEEKAQREANKKIEKQLQKDKQVYRATHRLLLLGAGESGKSTIVKQMRILHVNGFNGEGGEEDPQAARSNSDGEKATKVQDIKNNLKEAIETIVAAMSNLVPPVELANPENQFRVDYILSVMNVPDFDFPPEFYEHAKALWEDEGVRACYERSNEYQLIDCAQYFLDKIDVIKQADYVPSDQDLLRCRVLTSGIFETKFQVDKVNFHMFDVGGQRDERRKWIQCFNDVTAIIFVVASSSYNMVIREDNQTNRLQEALNLFKSIWNNRWLRTISVILFLNKQDLLAEKVLAGKSKIEDYFPEFARYTTPEDATPEPGEDPRVTRAKYFIRDEFLRISTASGDGRHYCYPHFTCAVDTENIRRVFNDCRDIIQRMHLRQYELL | -0.7154 log2 | 0.1054 log2 | 
HNRNPC (protein, UniProt P07910 2-306, looked up) Heterogeneous nuclear …: ASNVTNKTDPRSMNSRVFIGNLNTLVVKKSDVEAIFSKYGKIVGCSVHKGFAFVQYVNERNARAAVAGEDGRMIAGQVLDINLAAEPKVNRGKAGVKRSAAEMYGSVTEHPSPSPLLSSSFDLDYDFQRDYYDRMYSYPARVPPPPPIARAVVPSKRQRVSGNTSRRGKSGFNSKSGQRGSSKSGKLKGDDLQAIKKELTQIKQKVDSLLENLEKIEKEQSKQAVEMKNDKSEEEQSSSSVKKDETNVKMESEGGADDSAEEGDLLDDDDNEDRGDDQLELIKDDEKEAEEGEDDRDSANGEDDS | -0.69 log2 | 1.297 log2 | 
MATR3 (protein, UniProt P43243 2-847, looked up) Matrin-3: SKSFQQSSLSRDSQGHGRDLSAAGIGLLAAATQSLSMPASLGRMNQGTARLASLMNLGMSSSLNQQGAHSALSSASTSSHNLQSIFNIGSRGPLPLSSQHRGDADQASNILASFGLSARDLDELSRYPEDKITPENLPQILLQLKRRRTEEGPTLSYGRDGRSATREPPYRVPRDDWEEKRHFRRDSFDDRGPSLNPVLDYDHGSRSQESGYYDRMDYEDDRLRDGERCRDDSFFGETSHNYHKFDSEYERMGRGPGPLQERSLFEKKRGAPPSSNIEDFHGLLPKGYPHLCSICDLPVHSNKEWSQHINGASHSRRCQLLLEIYPEWNPDNDTGHTMGDPFMLQQSTNPAPGILGPPPPSFHLGGPAVGPRGNLGAGNGNLQGPRHMQKGRVETSRVVHIMDFQRGKNLRYQLLQLVEPFGVISNHLILNKINEAFIEMATTEDAQAAVDYYTTTPALVFGKPVRVHLSQKYKRIKKPEGKPDQKFDQKQELGRVIHLSNLPHSGYSDSAVLKLAEPYGKIKNYILMRMKSQAFIEMETREDAMAMVDHCLKKALWFQGRCVKVDLSEKYKKLVLRIPNRGIDLLKKDKSRKRSYSPDGKESPSDKKSKTDGSQKTESSTEGKEQEEKSGEDGEKDTKDDQTEQEPNMLLESEDELLVDEEEAAALLESGSSVGDETDLANLGDVASDGKKEPSDKAVKKDGSASAAAKKKLKKVDKIEELDQENEAALENGIKNEENTEPGAESSENADDPNKDTSENADGQSDENKDDYTIPDEYRIGPYQPNVPVGIDYVIPKTGFYCKLCSLFYTNEEVAKNTHCSSLPHYQKLKKFLNKLAEERRQKKET | -0.7331 log2 | 1.234 log2 | 
BASP1 (protein, UniProt P80723 2-227, looked up) Brain acid soluble protein 1: GGKLSKKKKGYNVNDEKAKEKDKKAEGAATEEEGTPKESEPQAAAEPAEAKEGKEKPDQDAEGKAEEKEGEKDAAAAKEEAPKAEPEKTEGAAEAKAEPPKAPEQEQAAPGPAAGGEAPKAAEAAAAPAESAAPAAGEEPSKEEGEPKKTEAPAAPAAQETKSDGAPASDSKPGSSEAAPSSKETPAATEAPSSTPKAQGPAASAEEPKPVEAPAANSDQTVTVKE | -0.7159 log2 | -1.2737 log2 | 
COPB1 (protein, UniProt P53618 2-953, looked up) Coatomer subunit beta: TAAENVCYTLINVPMDSEPPSEISLKNDLEKGDVKSKTEALKKVIIMILNGEKLPGLLMTIIRFVLPLQDHTIKKLLLVFWEIVPKTTPDGRLLHEMILVCDAYRKDLQHPNEFIRGSTLRFLCKLKEAELLEPLMPAIRACLEHRHSYVRRNAVLAIYTIYRNFEHLIPDAPELIHDFLVNEKDASCKRNAFMMLIHADQDRALDYLSTCIDQVQTFGDILQLVIVELIYKVCHANPSERARFIRCIYNLLQSSSPAVKYEAAGTLVTLSSAPTAIKAAAQCYIDLIIKESDNNVKLIVLDRLIELKEHPAHERVLQDLVMDILRVLSTPDLEVRKKTLQLALDLVSSRNVEELVIVLKKEVIKTNNVSEHEDTDKYRQLLVRTLHSCSVRFPDMAANVIPVLMEFLSDNNEAAAADVLEFVREAIQRFDNLRMLIVEKMLEVFHAIKSVKIYRGALWILGEYCSTKEDIQSVMTEIRRSLGEIPIVESEIKKEAGELKPEEEITVGPVQKLVTEMGTYATQSALSSSRPTKKEEDRPPLRGFLLDGDFFVAASLATTLTKIALRYVALVQEKKKQNSFVAEAMLLMATILHLGKSSLPKKPITDDDVDRISLCLKVLSECSPLMNDIFNKECRQSLSHMLSAKLEEEKLSQKKESEKRNVTVQPDDPISFMQLTAKNEMNCKEDQFQLSLLAAMGNTQRKEAADPLASKLNKVTQLTGFSDPVYAEAYVHVNQYDIVLDVLVVNQTSDTLQNCTLELATLGDLKLVEKPSPLTLAPHDFANIKANVKVASTENGIIFGNIVYDVSGAASDRNCVVLSDIHIDIMDYIQPATCTDAEFRQMWAEFEWENKVTVNTNMVDLNDYLQHILKSTNMKCLTPEKALSGYCGFMAANLYARSIFGEDALANVSIEKPIHQGPDAAVTGHIRIRAKSQGMALSLGDKINLSQKKTSI |  |  | Difference (log2), PP1 vs untreated ([1]; PP1 vs untreated, LFQ intensities, replicates 1-3): -0.8147 log2; Difference (log2), untreated vs GFP ([2]; untreated vs GFP, LFQ intensities, replicates 1-3): 0.6071 log2
SLC16A3 (protein, UniProt O15427 2-465, looked up) Monocarboxylate transporter 4: GGAVVDEGPTGVKAPDGGWGWAVLFGCFVITGFSYAFPKAVSVFFKELIQEFGIGYSDTAWISSILLAMLYGTGPLCSVCVNRFGCRPVMLVGGLFASLGMVAASFCRSIIQVYLTTGVITGLGLALNFQPSLIMLNRYFSKRRPMANGLAAAGSPVFLCALSPLGQLLQDRYGWRGGFLILGGLLLNCCVCAALMRPLVVTAQPGSGPPRPSRRLLDLSVFRDRGFVLYAVAASVMVLGLFVPPVFVVSYAKDLGVPDTKAAFLLTILGFIDIFARPAAGFVAGLGKVRPYSVYLFSFSMFFNGLADLAGSTAGDYGGLVVFCIFFGISYGMVGALQFEVLMAIVGTHKFSSAIGLVLLMEAVAVLVGPPSGGKLLDATHVYMYVFILAGAEVLTSSLILLLGNFFCIRKKPKEPQPEVAAAEEEKLHKPPADSGVDLREVEHFLKAEPEKNGEVVHTPETSV |  |  | Difference (log2), PP1 vs untreated [1, 5]: 1.651; Difference (log2), untreated vs GFP [2, 6]: 0.1883
VAPA (protein, UniProt Q9P0L0 2-249, looked up) Vesicle-associated membrane …: ASASGAMAKHEQILVLDPPTDLKFKGPFTDVVTTNLKLRNPSDRKVCFKVKTTAPRRYCVRPNSGIIDPGSTVTVSVMLQPFDYDPNEKSKHKFMVQTIFAPPNTSDMEAVWKEAKPDELMDSKLRCVFEMPNENDKLNDMEPSKAVPLNASKQDGPMPKPHSVSLNDTETRKLMEECKRLQGEMMKLSEENRHLRDEGLRLRKVAHSDKPGSTSTASFRDNVTSPLPSLLVVIAAIFIGFFLGKFIL |  |  | Difference (log2), PP1 vs untreated [1, 5]: 1.6514; Difference (log2), untreated vs GFP [2, 6]: -1.034
